Measurements published in patent publication US10640547B2, “Immunotherapy against melanoma and other cancers” (IMMATICS BIOTECHNOLOGIES GMBH, priority 2016, dated 2020).

Columns and labels:
[1] = target: HLA-A*02:01 (Homo sapiens, UniProt P04439, D140Y/D185E/D98H/E176V/E277Q/G131W/G231S/I119V/I121R/I166T/I218V/L300P/L318F/N151K/N90K/P208A/P217A/Q86G/Q94H/R138H/R169H/T345S); test: MHC binding assay (UV-ligand exchange, β2m ELISA); settings: MHC class I binding score; binding to HLA-A*02:01 ranged by peptide exchange yield (UV-ligand exchange, β2m ELISA)
How it was run: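 Binding capacity is expressed as the yield of UV-mediated ligand exchange, reflecting how well each peptide stabilizes peptide-receptive MHC. Stabilized complexes are read out by anti-β2m HRP ELISA (450 nm) after streptavidin capture, with refolded MLA-001 monomer standards for quantitation.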

[2] = tested on: CD8+ T cells; test: In vitro immunogenicity: T-cell priming with artificial APCs loaded with peptide/MHC and anti-CD28, pMHC multimer readout; assay type: cell-based, human; settings: Table 10B; HLA-A*02 restricted peptides; percentage of positive wells among evaluable
From the text: In order to obtain information regarding the immunogenicity of the TUMAPs of the present invention, the inventors performed investigations using an in vitro T-cell priming assay based on repeated stimulations of CD8+ T cells with artificial antigen presenting cells (aAPCs) loaded with peptide/MHC complexes and anti-CD28 antibody.
In order to perform in vitro stimulations by artificial antigen presenting cells loaded with peptide-MHC complex (pMHC) and anti-CD28 antibody, the inventors first isolated CD8+ T cells from fresh HLA-A*02 leukapheresis products via positive selection using CD8 microbeads (Miltenyi Biotec, Bergisch-Gladbach, Germany) of healthy donors obtained from the University clinics Mannheim, Germany, after informed consent.
PBMCs and isolated CD8+ lymphocytes were incubated in T-cell medium (TCM) until use consisting of RPMI-Glutamax (Invitrogen, Karlsruhe, Germany) supplemented with 10% heat inactivated human AB serum (PAN-Biotech, Aidenbach, Germany), 100 U/ml Penicillin/100 μg/ml Streptomycin (Cambrex, Cologne, Germany), 1 mM sodium pyruvate (CC Pro, Oberdorla, Germany), 20 μg/ml Gentamycin (Cambrex). 2.5 ng/ml IL-7 (PromoCell, Heidelberg, Germany) and 10 U/ml IL-2 (Novartis Pharma, Nürnberg, Germany) were also added to the TCM at this step.
Generation of pMHC/anti-CD28 coated beads, T-cell stimulations and readout was performed in a highly defined in vitro system using four different pMHC molecules per stimulation condition and 8 different pMHC molecules per readout condition.
The purified co-stimulatory mouse IgG2a anti human CD28 Ab 9.3 (Jung et al., 1987) was chemically biotinylated using Sulfo-N-hydroxysuccinimidobiotin as recommended by the manufacturer (Perbio, Bonn, Germany). Beads used were 5.6 μm diameter streptavidin coated polystyrene particles (Bangs Laboratories, Illinois, USA).
800.000 beads/200 μl were coated in 96-well plates in the presence of 4×12.5 ng different biotin-pMHC, washed and 600 ng biotin anti-CD28 were added subsequently in a volume of 200 μl. Stimulations were initiated in 96-well plates by co-incubating 1×10^6 CD8+ T cells with 2×10^5 washed coated beads in 200 μl TCM supplemented with 5 ng/ml IL-12 (PromoCell) for 3 days at 37° C. Half of the medium was then exchanged by fresh TCM supplemented with 80 U/ml IL-2 and incubating was continued for 4 days at 37° C. This stimulation cycle was performed for a total of three times. For the pMHC multimer readout using 8 different pMHC molecules per condition, a two-dimensional combinatorial coding approach was used as previously described (Andersen et al., 2012) with minor modifications encompassing coupling to 5 different fluorochromes. Finally, multimeric analyses were performed by staining the cells with Live/dead near IR dye (Invitrogen, Karlsruhe, Germany), CD8-FITC antibody clone SK1 (BD, Heidelberg, Germany) and fluorescent pMHC multimers. For analysis, a BD LSRII SORP cytometer equipped with appropriate lasers and filters was used. Peptide specific cells were calculated as percentage of total CD8+ cells. Evaluation of multimeric analysis was done using the FlowJo software (Tree Star, Oregon, USA). In vitro priming of specific multimer+CD8+ lymphocytes was detected by comparing to negative control stimulations.

| Substance | Peptide exchange [1] | Wells positive [%] [2] |
| --- | --- | --- |
| 128 (ALFPGDVDRL; listed as Homo sapiens) [compound 128] | +++ (>50 = +++) | + (<20% = +) |
| 232 (KILPDLNTV; listed as Homo sapiens) [compound 232] | ++++ (>75% = ++++) | + (<20% = +) |
| 20 (VISPHGIASV; listed as Homo sapiens) [compound 20] | ++++ (>75% = ++++) | ++ (20%-49% = ++) |
| 121 (FLEDLVPYL; listed as Homo sapiens) [compound 121] | ++++ (>75% = ++++) | +++ (50%-69% = +++) |
| 213 (LLDPTNVFI; listed as Homo sapiens) [compound 213] | ++++ (>75% = ++++) | ++ (20%-49% = ++) |
| 13 (IQSETTVTV; listed as Homo sapiens) [compound 13] | ++++ (>75% = ++++) | ++ (20%-49% = ++) |
